Assay results taken from paper PMC2670261, “Characterization of the interaction between Actinin-Associated LIM Protein (ALP) and the rod domain of α-actinin” (BMC Cell Biology, 2009).
Residue numbers refer to the chain shown, from its start. One block for each molecule: values may come before it.

Experiments:
[1] = molecular target: T1, α-actinin rod domain, spectrin repeats 1–4 (R1-R4) of human α-actinin 2 (Homo sapiens, UniProt P35609); assay: SPR interaction with α-actinin rod R1-R4; format: binding; details: for Kd: SPR, 20 mM Tris pH 7.4, 150 mM NaCl, 0.005% P20
T1 construct: Rod fragments containing spectrin repeats 1–4 (residues 274–746); His-tag (cleaved yes); made in house; host or cells: Escherichia coli BL21(DE3)
Source text: (§1) Internal fragments of human ALP (AF039018) and chicken ALP (AJ249218) were cloned into a modified pET24d vector (Novagen, Merck Biosciences, Schwalbach, Germany) as described earlier using BsmBI (NcoI)- NotI cloning sites. Rod fragments containing spectrin repeats 1–4 (residues 274–746) or repeats 2 and 3 (residues 371–637) of human α-actinin 2 have been described previously. A YFP-fusion of ALP107-273 was generated in a pEYFP-C1 vector (Clontech, BD Biosciences) at an EcoRI-BamHI restriction site. The deletion constructs of pEYFP-ALP107-273 were generated by PCR. The α-Actinin-CFP construct is described elsewhere. All constructs were verified by DNA sequencing.
(§2) ALP internal fragments and an α-actinin rod containing the spectrin repeats 1–4 (R1-R4) and a fragment containing spectrin repeats 2 and 3 (R2-R3) were expressed at +37°C for 3–4 h in Escherichia coli BL21(DE3) strain as previously described. Briefly, proteins were purified using nickel nitrilotriacetic acid-agarose (Qiagen) as a first step. The His-tag was removed by tobacco etch virus protease (Invitrogen). For further purification, size exclusion chromatography (Superdex 75 16/60 and 26/60 columns, Amersham Biosciences) for ALP, and ion exchange (ProteinPakQ 8HR columns, Waters) for α-actinin fragments were used. The molecular weight standards for the gel filtration were obtained from Bio-Rad Laboratories. For NMR analysis, ^15N-labelled ALP107-273 and ^15N^13C-labelled ALP107-273 were produced in general M9-media with supplements. Expression was induced with 1 mM isopropyl-1-thio-β-D-galactopyranoside (IPTG) at +37°C for 8 hrs in E. coli BL21(DE3) strain. Low molecular weight markers used in SDS-polyacrylamide electrophoresis were obtained from Amersham Biosciences. Five ALP peptides were purchased from EZBiolab Inc. (Westfield, IN, USA).
A Biacore 3000 system (Biacore, Uppsala, Sweden) was used for surface plasmon resonance (SPR) analysis. Ligand immobilization was performed via amine coupling to gold sensor chips (CM5). […]

[2] = molecular target: ALP107-273 (internal region fragment of actinin-associated LIM protein, residues 107-273) (human); assay: SPR; Biacore 3000; ALP107-273 or peptide 3 immobilised by amine coupling on CM5; R1-R4 or R2-R3 as soluble analyte; 20 mM Tris pH 7.4, 150 mM NaCl, 0.005% P20; apparent Kd
[3] = molecular target: α-actinin 2 rod domain, spectrin repeats 1-4 (R1-R4) (human) (UniProt P35609); assay: SPR; Biacore 3000; α-actinin rod fragment (R1-R4 or R2-R3) immobilised by amine coupling on CM5; ALP107-273 or ALP peptides as soluble analyte; 20 mM Tris pH 7.4, 150 mM NaCl, 0.005% P20; apparent Kd
[4] = molecular target: T2, α-actinin spectrin repeats 2–3 (R2-R3) of human α-actinin 2 (Homo sapiens, UniProt P35609); assay: SPR interaction with α-actinin R2-R3; format: binding; details: Biacore 3000, R2-R3 immobilized, ALP107-273 as analyte
T2 construct: repeats 2 and 3 (residues 371–637) of human α-actinin 2; His-tag (cleaved yes); made in house; host or cells: Escherichia coli BL21(DE3)
Source text: as §1
ALP internal fragments and an α-actinin rod containing the spectrin repeats 1–4 (R1-R4) and a fragment containing spectrin repeats 2 and 3 (R2-R3) were expressed at +37°C for 3–4 h in Escherichia coli BL21(DE3) strain as previously described. Briefly, proteins were purified using nickel nitrilotriacetic acid-agarose (Qiagen) as a first step. The His-tag was removed by tobacco etch virus protease (Invitrogen). For further purification, size exclusion chromatography (Superdex 75 16/60 and 26/60 columns, Amersham Biosciences) for ALP, and ion exchange (ProteinPakQ 8HR columns, Waters) for α-actinin fragments were used. The molecular weight standards for the gel filtration were obtained from Bio-Rad Laboratories. […]

[5] = Concentration reached after purification; format: physicochemical; details: purified protein fragment
Procedure: as §2

[6] = tested on: U2OS cells, α-actinin in actin stress fibres; assay: Live cell localization of YFP fusion with α-actinin-CFP; format: cell-based, human; details: YFP fusion expressed with α-actinin-CFP in living U2OS cells
Source text: as §1
Human osteosarcoma (U2OS) cells were maintained in Dulbecco's modified Eagle's medium (DMEM) supplemented with 10% fetal bovine serum (Hyclone), 2 mM L-glutamine, penicillin and streptomycin (Sigma-Aldrich). Transfected cells were re-plated on fibronectin (10 μg/ml) coated glass bottom dishes (MatTek). General growth medium was used as imaging medium. The time lapse images were acquired with an IX-71 inverted microscope (Olympus) equipped with a Polychrome IV monochromator (TILL Photonics) with the appropriate filters, an Andor iXon (Andor) camera, a heated sample environment (+37°C) and CO2-control. A PLAPON 60xO TIRFM 60x/1,45 (oil) objective (Olympus) was used. […]

CHO cells, stress fibres = assay: Localization of YFP-ALP107-273 mutants at stress fibres; format: cell-based; details: YFP fused to ALP107-273 with deletions or mutations; CHO cells 24 h after transfection, 4 h on fibronectin; blinded scoring
Source text: as §1
The pEYFP ALP107-273 and mutants were transfected into CHO cells as described previously. Following 24 hrs transfection, the cells were seeded for 4 hrs on coverslips coated with 10 μg/ml human plasma fibronectin (Sigma) and fixed with 4% paraformaldehyde in 140 mM NaCl, 10 mM Na-Phosphate pH 7.4. The coverslips were coded and the number of cells with YFP localization at stress fibres was counted by two observers who were blinded to the identity of the samples. At least 100 cells were scored from each coverslip, four coverslips were used per transfection, and the experiment was repeated at least three times.

[7] = molecular target: T3, α-actinin 2 rod domain, spectrin repeats 1-4 (R1-R4) (human, UniProt P35609 274-746); assay: SPR; Biacore 3000; ALP107-273 or peptide 3 immobilised by amine coupling on CM5; R1-R4 or R2-R3 as soluble analyte; 20 mM Tris pH 7.4, 150 mM NaCl, 0.005% P20; apparent Kd; details: both partners purified
T3 construct: α-actinin 2, human, spectrin repeats 1-4, residues 274-746; also called α-actinin rod; α-actinin rod region; source: E. coli BL21(DE3), purified (Ni-NTA, TEV removal of the His-tag, ion exchange)
T3 sequence (P35609 274-746): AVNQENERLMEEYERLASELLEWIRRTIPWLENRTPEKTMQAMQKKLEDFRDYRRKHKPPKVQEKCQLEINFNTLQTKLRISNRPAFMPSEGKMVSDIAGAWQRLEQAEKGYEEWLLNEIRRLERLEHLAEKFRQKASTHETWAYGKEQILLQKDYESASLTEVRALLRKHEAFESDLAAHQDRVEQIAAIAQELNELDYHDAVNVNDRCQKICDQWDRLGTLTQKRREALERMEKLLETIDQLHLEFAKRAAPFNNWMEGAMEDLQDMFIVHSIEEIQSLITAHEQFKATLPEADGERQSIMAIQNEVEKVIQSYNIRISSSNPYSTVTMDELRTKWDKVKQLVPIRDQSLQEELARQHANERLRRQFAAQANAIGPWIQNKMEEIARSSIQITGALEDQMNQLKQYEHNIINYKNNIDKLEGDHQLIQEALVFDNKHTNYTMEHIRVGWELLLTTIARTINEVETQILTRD

T1 sequence (P35609 274-746): as above
T2 sequence (P35609 371-637): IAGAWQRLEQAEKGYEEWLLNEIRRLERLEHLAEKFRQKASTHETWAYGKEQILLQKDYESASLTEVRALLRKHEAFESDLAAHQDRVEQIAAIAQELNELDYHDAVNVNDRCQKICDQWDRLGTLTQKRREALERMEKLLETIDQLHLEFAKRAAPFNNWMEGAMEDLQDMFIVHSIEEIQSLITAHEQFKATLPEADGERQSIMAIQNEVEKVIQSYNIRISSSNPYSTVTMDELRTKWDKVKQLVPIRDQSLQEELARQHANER
Sequence of α-actinin 2 rod domain, spectrin repeats 1-4 (R1-R4) (human) (P35609 274-746): as the sequence (P35609 274-746) above

interaction with the rod domain in SPR ([1]; comparison with peptide 3 (Fig 7D)): did not interact
Molecule: MNKPEQALLVQIHPLVTEPFMG [scrambled version of peptide 3, scrambled peptide 3 containing the same amino acids in random order, reference compound]

Kd [2]: 4500 nM
Molecule: α-actinin 2 rod domain, spectrin repeats 1-4 (R1-R4) (from UniProt P35609 274-746) (domain or fragment)

Kd [3]: 270 nM
Molecule: ALP107-273 (internal region fragment of actinin-associated LIM protein, residues 107-273) (domain or fragment)

Kd [4]: 6.8 nM
Kd ([1]; Biacore 3000, CM5 amine coupling, R1-R4 immobilized, ALP107-273 as analyte): 270 nM
Kd ([1]; Biacore 3000, immobilized ALP107-273, soluble R1-R4): 4500 nM
B1: ALP107-273: 167 residue construct of the human ALP internal region, residues 107–273; used as YFP fusion in cells (protein, UniProt Q53GG5 107-273, looked up, fragment)
chain: SEPQDGNYFEHKHNIRPKPFVIPGRSSGCSTPSGIDCGSGRSTPSSVSTVSTICPGDLKVAAKLAPNIPLEMELPGVKIVHAQFNTPMQLYSDDNIMETLQGQVSTALGETPLMSEPTASVPPESDVYRMLHDNRNEPTQPRQSGSFRVLQGMVDDGSDDRPAGTRS
modifications: YFP fusion
notes: 167 residue construct of the human ALP internal region, residues 107–273; used as YFP fusion in cells
concentration to which the purified fragment could be concentrated [5]: up to 30 mg/ml
co-localization with α-actinin [6]: co-localized with α-actinin in the stress fibres

B2: YS197-198FA: YFP-ALP107-273 point mutant, conserved tyrosine and serine of ZM motif changed to phenylalanine and alanine (protein, UniProt Q53GG5 107-273, looked up, variant Y197F S198A)
chain: B1 chain with Y91F, S92A
modifications: residues 107-273 YFP fusion
notes: YFP-ALP107-273 point mutant, conserved tyrosine and serine of ZM motif changed to phenylalanine and alanine
YFP localization at stress fibres (CHO cells, stress fibres): abrogated localization

Kd [7]: 3000 nM
B3: ALP peptide 3 (residues 175-196) (peptide)
peptide: PLEMELPGVKIVHAQFNTPMQL
notes: source: synthetic peptide, bought: EZBiolab Inc
